Experimental data taken from a protein production outcome set (Wang et al. 2014).

Assay: label from the status in PepcDB records

Sequence	protein production
MPLDRDWIAQRIPHAGAMCLLDRVLTWDAGRLRCVAVSHLSPGNPLRAGGRLSVVCGIEYAAQATAVHGALRSAGEGEAPRSGFLVSVRDVEFHVRRLDTLDGDLVVEVECLTGDGNDALYRFRLLAADGRELLTGRLAVRLDAEAGLEHHHHHH	not failed
MPLITTETGKKMHVLEDGRKLITVIPGDGIGPECVEATLKVLEAAKAPLAYEVREAGASVFRRGIASGVPQETIESIRKTRVVLKGPLETPVGYGEKSANVTLRKLFETYANVRPVREFPNVPTPYAGRGIDLVVVRENVEDLYAGIEHMQTPSVAQTLKLISWKGSEKIVRFAFELARAEGRKKVHCATKSNIMKLAEGTLKRAFEQVAQEYPDIEAVHIIVDNAAHQLVKRPEQFEVIVTTNMNGDILSDLTSGLIGGLGFAPSANIGNEVAIFEAVHGSAPKYAGKNVINPTAVLLSAVMMLRYLEEFATADLIENALLYTLEEGRVLTGDVVGYDRGAKTTEYTEAIIQNLGKTPRKTQVRGYKPFRLPQVDGAIAPIVPRSRRVVGVDVFVETNLLPEALGKALEDLAAGTPFRLKMISNRGTQVYPPTGGLTDLVDHYRCRFLYTGEGEAKDPEILDLVSRVASRFRWMHLEKLQEFDGEPGFTKAQGED	not failed
MPLLIITTILWAFSFSLIGEYLAGQVDSWFSAMFRLTAAAVVFLPFLRWRGYAPRVIFLYMLVGACQLGIMYLFVFQAYLYLTVPEFLLFTVMTPLYVTLIYDLLARHRLRWGYVMSALLAVFGAAVIHYHGVSEHFWWGFLLVQVANVCFASGQVGYKRLMEIHPVPQHCAFSWFYLGAAIVTIAAWLLFGNMDKLPTTTLQWGVLAWLGIGASGVGYFMWNYGATQVDAGTLSIMNNFHVPAGLLVNFAIWHKTPDWLSFIVGTAIITSSLWVHQHWVVKRPLRTANDHKRADAQNE	failed
MPLLPHNRTALGFLLRHLIAGLTGGLVFGGLILALDISGLRSMLMASQDGLLYTLLLFFGLSVTFGGVAMGVGVMSLGEDKN	failed
MPLRLDIKRKLTAMSDRVKSVDLHPTEPWMLASLYNGSVCVWNHETQTLVKTFEVCDLPVRAAKFVARKNWVVTGADDMQIRVFNYNTLERVHMFEAHSDYIRCIAVHPTQPFILTSSDDMLIKLWDWDKKWSCSQVFEGHTHYVMQIVINPKDNNQFASASLDRTIKVWQLGSSSPNFTLEGHEKGVNCIDYYSGGDKPYLISGADDRLVKIWDYQNKTCVQTPEGHAQNVSCATFHPELPIIITGSEDGTVRIWHSSTYRLESTLNYGMERVWCVASLRGSNNVALGYDEGSIIVKLGREEPAMSMDANGKIIWAKHSEVQQANLKAMGDTEIKDGERLPLAVKDMGSCEIYPQTIQHNPNGRFVVVCGDGEYIIYTAMALRNKSFGSAQEFAWAHDSSEYAIRESNSVVKIFKNFKEKKSFKPDFGAESIYGGFLLGVRSVNGLAFYDWENTELIRRIEIQPKHIFWSDSGELVCIATEESFFILKYLSEKVLAAQETHEGVTEDGIEDAFEVLGEIQEIVKTGLWVGDCFIYTSSVNRLNYYVGGEIVTIAHLDRTMYLLGYIPKDNRLYLGDKELNIVSYSLLVSVLEYQTAVMRRDFSMADKVLPTIPKEQRTRVAHFLEKQGFKQQALTVSTDPEHRFELALQLGELKIAYQLAVEAESEQKWKQLAELAISKCQFSLAQECLHHAQDYGGLLLLATASGNASMVNKLAEGAERDGKNNVAFMSYFLQGKLDACLELLIRTGRLPEAAFLARTYLPSQVSRVVKLWRENLSKVNQKAAESLADPTEYENLFPGLKEAFVVEEWVKETHADLWPAKQYPLVTPNEERNVMEEAKRFQPSRATAQQEPDGKPASSPVIMASQTTHKEEKSFQELEDDLDTMELEDIDTTDINLDEDILDD	failed
MPLVLHHPERQAELGSGLRDGGGAALRPPGRLVKQMDFTEAYADTCSTVGLAAREGNVKVLRKLLKKGRSVDVADNRGWMPIHEAAYHNSVECLQMLINADSSENYIKMKTFEGFCALHLAASQGHWKIVQILLEAGADPNATTLEETTPLFLAVENGQIDVLRLLLQHGANVNGSHSMCGWNSLHQASFQENAEIIKLLLRKGANKECQDDFGITPLFVAAQYGKLESLSILISSGANVNCQALDKATPLFIAAQEGHTKCVELLLSSGADPDLYCNEDSWQLPIHAAAQMGHTKILDLLIPLTNRACDTGLNKVSPVYSAVFGGHEDCLEILLRNGYSPDAQACLVFGFSSPVCMAFQKDCEFFGIVNILLKYGAQINELHLAYCLKYEKFSIFRYFLRKGCSLGPWNHIYEFVNHAIKAQAKYKEWLPHLLVAGFDPLILLCNSWIDSVSIDTLIFTLEFTNWKTLAPAVERMLSARASNAWILQQHIATVPSLTHLCRLEIRSSLKSERLRSDSYISQLPLPRSLHNYLLYEDVLRMYEVPELAAIQDG	failed
MPMSFSLTQMILISAAYLAVLFGVAWISERGMIPRSIIRHPLTYTLSLGVYASAWAFYGTVGLAYQYGYGFLSSYLGVSGAFLLAPVLLYPILKITRTYQLSSLADLFAFRFRSTWAGALTTIFMLIGVLPLLALQIQAVADSIGILTHEPVQHRVALSFCALITLFTIFFGSRHIATREKHEGLVFAIAFESVIKLIAIGGVGLYALYGVFDGPQQLELWLLQNQTALAALHTPLQEGPWRTLLLVFFASAIVMPHMYHMTFTENLNPRALVSASWGLPLFLLLMSLAVPLILWAGLKLGATTNPEYFTLGIGIAANSPALALLAYVGGLSAASGLIIVTTLALSGMALNHLVLPLYQPPAEGNIYRWLKWTRRALIVAIIMAGYAFYLLLGAEQDLANLGIVAFVATLQFLPGVLSVLYWPTANRRGFIAGLLAGILVWLVTMLLPLIGNLQGFYIPLLNMIYVLDDTSWHMAAIASLAANVLMFTLISLFTNASTEEASAAEACAVDNVRRPQRRELHAASPQEFATQLAKPLGAKAAQKEVEQALRDLYLPFDERRPYALRRLRDRIEANLSGLMGPSVAQDMVETFLPYKAGGENYVTEDIHFIESRLEDYHSRLTGLAAELDALRRYHRQTLQELPMGVCSLAKDQEILMWNKAMEELTGIPAQHVVGSRLSTITNPWKDLLQGFINLPDEHLHKQHLALDGQTRWLNLHKAAIDEPLAPGNSGLVLLVEDLTETQTLEDKLVHSERLASIGRLAAGVAHEIGNPITGIACLAQNLREEREEDGELTEISEQILEQTKRISRIVQSLMSFAHAGSHQHNDEAVCLAEVAQDAIGLLALNRRNFEVQFFNLCDPDHWVDGDPQRLAQVLINLLSNARDASPPGSAVRVKSEAFEHTVDLIVEDEGSGIPKNIMDRLFEPFFTTKDPGEGTGLGLALVYSIVEEHYGQITIDSPADPQSQRGTRIRVTLPRHVEATSAVN	failed
MPMSQSTFTILLGGELSLTERLRDAIEDSRFIAADGGMRHAAALGITPELWVGDFDSTPADLADAFPDVPKQPYPAAKAATDGEIAVAEAIARGARRLILAGALGGERSDHALQHLLSAVSLAEEGFDLLLTSGKEEAVPLVAGTIELDLPKGSLFSVPGFSELRGLAIENARYPLADFHLPFGSSRTISNVAEGKVRFSLRSGRAIVLARPYDLSGV	failed
MPMTIKRATWNNGPDLAFDINNKANAAIEKYGREAVINAALGTLLDDKGKIIALPSVYDRLDEMDRSHIASYAPIEGEKDYRKIVIDTLFGPYKPEGYISAIATPGGTGAIRSAIFSYLDEGDPLICHDYYWAPYRKICEEFGRNFKTFEFFTDDFAFNIDVYKEAIDEGIRDSDRIASLINSPGNNPTGYSLSDEEWDEVITFLKEKAEDKDKKITLIVDVAYLEFAGDGDQQRKFFEKFSNLPRNLFVVVAFSMSKSHTAYGLRSGAAVGISSSKEIIEEFEASLAHSARCNWSNGTHAAQNILIELERAENKKIYEQELVDLRNMLKSRADVFVTAAKENKLTMIPYFGGFFTFIPTDKAFDIVKDLEKENIFTIPSAKGIRVAICGVGEEKIPKLVQRLAFYTNKK	not failed
MPNCEKEALVVAAAMEKGTIHPIGRYLLPQYWEGPPLCFEYFPGRGLTATVSCIESVTEGNKLRKSSLGSVEFITSLFESQDQSREIKNAVNSSLYGNDFVHALLSLYQKVTLIHLEDQPHQPFYRPISLNLRHVMIKINTFIQFFFRMNQISNHEIGSFSAFATQFFSFLTHYSILPNPINSLNPTLRPLVPCTIHELAPPPAPPPFPSCKSAM	failed
MPPDEIEIEPVRQSSDKMLYCEAESPPTVEKVKPARENSETDLEIEDDEKFFTTGQKELYLEACKLMGVVPVSYFIRNMEESYVNLNHHGLGPRGTKAIAIALVSNMAVTKLELEDNCIMEEGVLSLVEMLQENYYLQEMNISNNHLGLEGARIISDFFERNSSSIWSLELSGNDFKEDSAALLCQALSTNYQIKKLDLSHNQFSDVGGEHLGQMLAINVGLTSLDLSWNNFHTRGAVALCNGLRGNVTLTKLDLSMNGFGNEVALALGEVLRLNRCLVYLDIGGNDIGNEGASKISKGLESNESLRVLKLFLNPINMDGAILLILAIKRNPKSRMEELDISNVLVSEQFMKTLDGVYAVHPQLDVVFKAVQGLSPKKTIFLLTNPMKLIQSYADQHKITIVDFFKSLNPTGTMKMSVDEFQKVMIEQNKVPLNQYQVREVIKKLDEKTGMVNFSFLNTMKP	failed
MPPFMSGLRAVSSLLSCRNAISRKLVSRSGIPRGSFVSDQIRRFGSLSGVERCSSNWLMSNDDARVSFRRLPGSVSLLQRRHFLGCGDGEEGGGELSKIYEERRVLGYTPEQMFNVVAAVDLYHGFVPWCQRSEVLKEYPDGSFDAELEIGFKFLVESYISHVESERPKWIKTTARDTGLFDHLINLWQFKPGPIPGTCDLHFHVDFKFNSPLYRQVASMFFKEVASRLVGAFSDRCRLVYGPGVRVDENAYEQRA	failed
MPPLGRPCHLAAMDSTDGPLDLIAERAEAAWSRGDRHRAMTLARLGLGQDDGHPRLLAVLGAFEQAEGRSAAAAGLFRRAMARCGDDPLMLHNLGVALRGAGLIDAAAAAWEGVLRGCPQRFATLFNLARLRDDQGRGEEALALYRRACLADPAASDAAYNLGNLLARRGALAQAAEVLGKAASVTPHDARIQTNLGIVLRRLGDAAGALACQRRAVALDPDLADAQWNLANLLLALDDYDEGFARYEWRKRRAPWRLVDPPLAEWRGEDLAGRRLLVGLEQGAGDMIQAARFLPVLAGRGARVIVEAPDALAGLLATVDGVESVVAPGAWAAARATCHIRAFSLPYRLGLRFADLAATAGPYLRVPPRTPTPPALPPGGQGPCVGLCWSGNPDFTENAVRAAPLAAFAPLTAVEGLTFFSLQKGPAVAELAASGLPVIDLDPWLVDYAATAAAMARLDMVVTTDTSVAHLAGALGRPCLLLLAAHCDWRWGIGRETSPWYPSLRLLRQERLGDWRAPVARAAALLAGLRRGTDTRGPEST	failed
MPPLRQTKTWVDRNGSAHVELSPTVPPQTPKRHMRIQSPMEISWSEAVREGGEHSARRCGDMAVSALAKPNPIIDDDPEGNPDVCMYTWIVECPGATAVLLWINGVFDHERIEESEMTRLEGSDLWILSLRMPSDWRASYTVNAWSGDGVAPWREAGDRMHIRKAAMSGGRPDSRAMGHIMDSSLVEGPDALPDCWVAASTSVKVVEETVAGEHFWFYEAPVKAPLLVLFDGQHWNNSMNLPAQVDAAIAIGLLPPVSLLMIDSVNTERRWDSVGVPGGQVDVLIDALLPHVRETYNVSARGEDTIVTGASFGGLASLWALALSDGEVGHAIAQSPSLWRFNVADALSAAEQWSSIHLQAGKYEGEMLRLSHQLAEDLSGDIREVRVRGVHGGHDWAWWRVHMLTELTRLLKTL	failed
MPPMHELTIEGLGPCEVEEGTRLVRAIEDCGAAVGHRCGGQSQCTTCRVEFAAGEPPVMTEAEYDKLTDIGRLGEMRLACQIVVDRDMTLTPLMTVEDQGWDDAGPEPALMVEPDAEWFSIETLEQR	failed
